From patent US20230194545A1 (SEATTLE CHILDREN S HOSPITAL D B A SEATTLE CHILDREN S …, published 2023)

Molecular target: T1, WASp 289-304 signature peptide (human)
T1 construct: Endogenous tryptic peptide released from human dried blood spot digests
T1 peptide: LIYDFIEDQGGLEAVR
Experiment: immuno-SRM: peptide enrichment from normal control DBS digests, quantified by LC-SRM-MS

- binding result: binds
B1: Anti-WASp 289 monoclonal antibody (antibody, V domains shown)
VH: QSVEESGGRLVTPGTPLTLTCTVSGFSLSSSDMTWVRQAPGKGLEYIGYMSSNDRPYYASWANGRFTISKTSTTVTLKITSPTTEDTATYFCCRGVLGTRSIHIWGPGTLVTVSL
VL: IVMTQTPSPVSAAVGGTVTINCQASESVYSDNRLSWYQQKPGQPPKQLIYGASTLASEVSSRFKGSGSGTQFTLTINDVVCDDAATYYCAGYKSSNQDGIGFGGGTEVVVKG
modifications: In the assay the antibody was chemically cross-linked (DMP) to Protein G magnetic beads; the letters do not carry this.
notes: Rabbit monoclonal antibody raised against the KLH-conjugated peptide; The printed light chain holds an X near its C-terminus; In the assay the antibody was cross-linked to Protein G magnetic beads
